{
  "source": "paper PMC3325491",
  "about": "(Structure(London, England:1993), 2012)",
  "molecules": {"B1": {"name": "HPV18 E6N domain (residues 1-82) (domain or fragment)", "chain": "MARFEDPTRRPYKLPDLCTELNTSLQDIEITCVYCKTVLELTEVFEFAFKDLFVVYRDSIPHAACHKCIDFYSRIRELRHYS"}, "B2": {"name": "HPV11 MBP-E6N fusion construct (E6N residues 1-81) (domain or fragment)", "chain": "MESKDASTSATSIDQLCKTFNLSLHTLQIQCVFCRNALTTAEIYAYAYKNLKVVWRDNFPFAACACCLELQGKINQYRHFN"}},
  "key": {"[1]": {"molecular_target": "HPV16 E6N domain (residues 1-80), wild type (HPV16)", "assay": "NMR titration"}, "AUC": {"molecular_target": "the molecule itself", "assay": "AUC"}, "SEC": {"molecular_target": "the molecule itself", "assay": "SEC"}},
  "data": [
    {"molecule": "HPV16 E6N domain (residues 1-80), wild type (domain or fragment)", "values": [
      {"measurement": "Kd", "setting": "[1]", "value": 290, "unit": "µM"}
    ]},
    {"molecule": "B1", "values": [
      {"measurement": "stoichiometry N", "setting": "AUC", "value": 2}
    ]},
    {"molecule": "B2", "values": [
      {"measurement": "stoichiometry N", "setting": "SEC", "value": 2}
    ]}
  ]
}
